From patent EP4786497A1 (Astellas Pharma Inc., dated 2026)
Substitutions are numbered along the chain they refer to.

Experiments:
[1] = molecular target: T1, human MerTK-human Fc fusion protein (human, UniProt Q12866 21-505); assay: ELISA, MerTK protein immobilized at 1 µg/mL
T1 construct: range 21-505; Made in ExpiCHO-S cells; also called human MerTK-Fc protein; MerTK-Fc fusion protein; not shown: human IgG1 Fc as encoded by the pFUSE-hIgG1-Fc1 vector (InvivoGen)
T1 sequence (looked up): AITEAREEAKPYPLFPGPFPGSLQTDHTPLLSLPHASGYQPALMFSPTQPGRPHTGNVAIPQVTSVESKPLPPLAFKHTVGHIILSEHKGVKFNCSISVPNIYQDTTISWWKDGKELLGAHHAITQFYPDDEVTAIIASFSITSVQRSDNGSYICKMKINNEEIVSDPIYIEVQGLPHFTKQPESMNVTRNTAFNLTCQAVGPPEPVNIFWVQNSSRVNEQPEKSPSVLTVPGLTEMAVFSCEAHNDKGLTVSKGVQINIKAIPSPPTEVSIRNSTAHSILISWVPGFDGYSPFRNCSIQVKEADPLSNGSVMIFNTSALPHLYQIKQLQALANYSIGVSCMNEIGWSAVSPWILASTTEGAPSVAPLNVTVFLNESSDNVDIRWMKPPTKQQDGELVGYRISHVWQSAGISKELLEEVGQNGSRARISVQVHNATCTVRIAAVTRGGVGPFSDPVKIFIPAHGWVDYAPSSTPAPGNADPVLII

[2] = molecular target: T2, mouse MerTK-human Fc fusion protein (mouse; human, UniProt Q60805 19-497); assay: ELISA, MerTK protein immobilized at 1 µg/mL
T2 construct: range 19-497; Made in ExpiCHO-S cells; also called protein of mouse MerTK fused with human Fc; not shown: human IgG1 Fc as encoded by the pFUSE-hIgG1-Fc1 vector (InvivoGen)
T2 sequence (looked up): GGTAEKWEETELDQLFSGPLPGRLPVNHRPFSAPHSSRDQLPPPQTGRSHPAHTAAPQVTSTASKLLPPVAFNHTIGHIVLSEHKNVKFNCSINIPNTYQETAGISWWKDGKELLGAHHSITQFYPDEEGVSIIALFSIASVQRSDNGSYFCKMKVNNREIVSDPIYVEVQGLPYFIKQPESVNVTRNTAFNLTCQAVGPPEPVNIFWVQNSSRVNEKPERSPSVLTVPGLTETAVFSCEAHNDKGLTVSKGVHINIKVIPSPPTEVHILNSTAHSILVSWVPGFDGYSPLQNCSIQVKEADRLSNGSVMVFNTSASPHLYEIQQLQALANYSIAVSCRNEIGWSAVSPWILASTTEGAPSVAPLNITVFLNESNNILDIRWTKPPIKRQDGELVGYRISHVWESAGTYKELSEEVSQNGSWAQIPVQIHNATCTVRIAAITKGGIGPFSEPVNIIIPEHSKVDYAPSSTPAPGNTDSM

human MerTK-His protein [3] = molecular target: T3, human MerTK-His protein (human, UniProt Q12866 21-505); assay: ELISA, human MerTK-His immobilized at 1 µg/mL
T3 construct: range 21-505; Made in ExpiCHO-S cells; also called protein of human MerTK fused with His tag
T3 sequence: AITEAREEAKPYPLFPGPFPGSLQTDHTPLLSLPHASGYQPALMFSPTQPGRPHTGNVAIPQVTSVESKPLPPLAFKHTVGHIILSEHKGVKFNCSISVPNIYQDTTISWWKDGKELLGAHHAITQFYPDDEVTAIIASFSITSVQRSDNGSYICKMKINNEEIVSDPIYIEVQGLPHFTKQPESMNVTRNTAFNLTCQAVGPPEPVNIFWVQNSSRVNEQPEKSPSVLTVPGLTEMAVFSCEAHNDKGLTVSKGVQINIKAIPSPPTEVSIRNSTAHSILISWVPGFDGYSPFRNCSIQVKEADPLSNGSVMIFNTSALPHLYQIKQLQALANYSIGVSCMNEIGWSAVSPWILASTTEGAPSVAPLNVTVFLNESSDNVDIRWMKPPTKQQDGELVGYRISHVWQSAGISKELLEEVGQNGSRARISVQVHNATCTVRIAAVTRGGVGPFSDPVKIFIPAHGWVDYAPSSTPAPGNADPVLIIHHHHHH

[4] = molecular target: misfolding-treated recombinant human TTR V30M protein (human, UniProt P02766 21-147); assay: ELISA, misTTR immobilized at 2 µg/mL
[5] = molecular target: T1, human MerTK-human Fc fusion protein; assay: ELISA, human MerTK-Fc immobilized at 1 µg/mL
human MerTK-His protein [6] = molecular target: T3, human MerTK-His protein; assay: ELISA, human MerTK-His immobilized, same method

B1: tA3-20 (antibody, human IgG1, lambda, L234A L235A)
heavy: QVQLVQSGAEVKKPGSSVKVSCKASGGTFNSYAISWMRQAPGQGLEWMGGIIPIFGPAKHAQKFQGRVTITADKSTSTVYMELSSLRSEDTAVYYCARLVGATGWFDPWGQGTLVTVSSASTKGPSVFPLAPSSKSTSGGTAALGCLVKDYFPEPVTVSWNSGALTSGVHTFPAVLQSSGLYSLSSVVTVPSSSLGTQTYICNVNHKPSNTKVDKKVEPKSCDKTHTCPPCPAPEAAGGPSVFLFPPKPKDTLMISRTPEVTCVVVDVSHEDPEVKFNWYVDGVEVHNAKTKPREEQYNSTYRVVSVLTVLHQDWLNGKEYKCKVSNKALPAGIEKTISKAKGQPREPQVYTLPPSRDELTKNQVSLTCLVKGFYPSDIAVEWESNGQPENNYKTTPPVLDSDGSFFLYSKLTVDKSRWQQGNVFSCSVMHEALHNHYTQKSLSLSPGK
light: FMLTQPHSVSESPGKTVNISCTRSSGSIATNYVQWYQQRPGSSPTTVIYEDNQRPSGVPDRFSGSIDSSSNSASLTISGLKTEDEAVYHCQSYDSSNVVFGGGTKLTVLGQPKAAPSVTLFPPSSEELQANKATLVCLISDFYPGAVTVAWKADSSPVKAGVETTTPSKQSNNKYAASSYLSLTPEQWKSHRSYSCQVTHEGSTVEKTVAPTECS
notes: human lambda constant region; also called fully human anti-MerTK antibody; anti-MerTK agonist antibody tA3-20
binding result [1]: binds
binding result [2]: binds
binding result (human MerTK-His protein [3]): binds

B2: tA3-20.1 (antibody, human IgG1, lambda, L234A L235A)
heavy: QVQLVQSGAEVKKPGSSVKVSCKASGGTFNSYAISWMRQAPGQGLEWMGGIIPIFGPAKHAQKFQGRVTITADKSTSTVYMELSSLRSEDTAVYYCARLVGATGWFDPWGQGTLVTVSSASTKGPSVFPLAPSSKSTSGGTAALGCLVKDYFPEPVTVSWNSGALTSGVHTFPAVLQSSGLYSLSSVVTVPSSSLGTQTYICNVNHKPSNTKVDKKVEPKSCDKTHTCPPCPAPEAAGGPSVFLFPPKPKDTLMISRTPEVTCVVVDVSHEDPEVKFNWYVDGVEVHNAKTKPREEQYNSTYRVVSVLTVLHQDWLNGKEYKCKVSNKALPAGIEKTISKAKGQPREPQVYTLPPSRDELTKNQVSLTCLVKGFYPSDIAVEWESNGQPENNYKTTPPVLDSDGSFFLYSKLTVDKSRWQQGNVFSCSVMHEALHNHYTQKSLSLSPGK
light: B1 light with N18T
binding result (human MerTK-His protein [3]): binds

B3: tA3-20.2 (antibody, human IgG1, lambda, L234A L235A)
heavy: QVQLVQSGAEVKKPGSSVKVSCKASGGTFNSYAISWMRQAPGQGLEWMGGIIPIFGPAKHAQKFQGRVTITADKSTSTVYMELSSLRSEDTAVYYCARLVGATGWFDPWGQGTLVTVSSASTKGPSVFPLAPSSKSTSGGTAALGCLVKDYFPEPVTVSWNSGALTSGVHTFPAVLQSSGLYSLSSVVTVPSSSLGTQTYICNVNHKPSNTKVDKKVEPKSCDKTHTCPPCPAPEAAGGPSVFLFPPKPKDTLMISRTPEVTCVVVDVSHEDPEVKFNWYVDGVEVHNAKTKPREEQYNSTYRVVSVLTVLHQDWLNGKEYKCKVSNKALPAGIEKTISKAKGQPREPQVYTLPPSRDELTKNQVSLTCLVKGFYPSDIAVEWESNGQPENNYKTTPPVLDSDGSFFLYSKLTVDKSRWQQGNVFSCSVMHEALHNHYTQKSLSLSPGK
light: B1 light with N18S
binding result (human MerTK-His protein [3]): binds

B4: tA-009 (bispecific antibody, mouse IgG2a)
heavy: QVQLVQSGAEVKKPGSSVKVSCKASGGTFNSYAISWMRQAPGQGLEWMGGIIPIFGPAKHAQKFQGRVTITADKSTSTVYMELSSLRSEDTAVYYCARLVGATGWFDPWGQGTLVTVSSAKTTAPSVYPLAPVCGDTTGSSVTLGCLVKGYFPEPVTLTWNSGSLSSGVHTFPAVLQSDLYTLSSSVTVTSSTWPSQSITCNVAHPASSTKVDKKIEPRGPTIKPCPPCKCPAPNAAGGPSVFIFPPKIKDVLMISLSPIVTCVVVDVSEDDPDVQISWFVNNVEVHTAQTQTHREDYNSTLRVVSALPIQHQDWMSGKEFKCKVNNKDLAAPIERTISKPKGSVRAPQVYVLPPPEKEMTKKQVSLTCLVKDFMPEDIYVEWTNNGKTELNYKNTEPVLKSDGSYFMYSKLTVEKKNWVERNSYSCSVVHEGLHNHHTTKSFSRTPGK
light: NFMLTQPHSVSESPGKTVNISCTRSSGSIATNYVQWYQQRPGSSPTTVIYEDNQRPSGVPDRFSGSIDSSSNSASLTISGLKTEDEAVYHCQSYDSSNVVFGGGTKLTVLGQPKSSPSVTLFPPSSEELETNKATLVCTITDFYPGVVTVDWKVDGTPVTQGMETTQPSKQSNNKYMASSYLTLTARAWERHSSYSCQVTHEGHTVEKSLSRADCS
chain: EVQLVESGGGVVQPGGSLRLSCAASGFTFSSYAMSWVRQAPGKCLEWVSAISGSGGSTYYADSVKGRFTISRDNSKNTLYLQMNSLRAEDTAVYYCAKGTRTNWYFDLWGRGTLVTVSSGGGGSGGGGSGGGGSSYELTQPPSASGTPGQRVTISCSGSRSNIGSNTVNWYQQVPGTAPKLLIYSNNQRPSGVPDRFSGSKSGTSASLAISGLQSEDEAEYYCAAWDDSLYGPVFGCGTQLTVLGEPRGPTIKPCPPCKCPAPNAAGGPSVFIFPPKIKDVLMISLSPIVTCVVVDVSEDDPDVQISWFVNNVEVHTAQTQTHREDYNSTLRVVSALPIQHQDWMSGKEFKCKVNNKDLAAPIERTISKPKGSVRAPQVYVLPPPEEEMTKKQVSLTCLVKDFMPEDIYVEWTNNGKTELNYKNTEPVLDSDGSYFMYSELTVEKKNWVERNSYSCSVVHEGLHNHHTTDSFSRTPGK
notes: also called mouse-type anti-MerTK-anti-TTR bispecific antibody
binding result [4]: binds
binding result [5]: binds

B5: tA3-20.3 (antibody, human IgG1, lambda, L234A L235A)
heavy: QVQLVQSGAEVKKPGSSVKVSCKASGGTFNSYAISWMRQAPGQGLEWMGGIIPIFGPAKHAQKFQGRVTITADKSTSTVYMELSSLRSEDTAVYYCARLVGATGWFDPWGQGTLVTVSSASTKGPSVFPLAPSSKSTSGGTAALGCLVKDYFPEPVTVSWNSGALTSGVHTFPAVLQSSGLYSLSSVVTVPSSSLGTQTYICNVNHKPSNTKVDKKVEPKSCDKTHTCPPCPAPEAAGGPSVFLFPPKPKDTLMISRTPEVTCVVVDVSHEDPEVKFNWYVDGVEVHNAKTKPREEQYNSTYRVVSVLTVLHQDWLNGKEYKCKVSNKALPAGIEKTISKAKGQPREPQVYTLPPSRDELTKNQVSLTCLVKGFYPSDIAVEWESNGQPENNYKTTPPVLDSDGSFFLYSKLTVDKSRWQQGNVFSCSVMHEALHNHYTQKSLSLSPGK
light: NFMLTQPHSVSESPGKTVNISCTRSSGSIATNYVQWYQQRPGSSPTTVIYEDNQRPSGVPDRFSGSIDSSSNSASLTISGLKTEDEAVYHCQSYDSSNVVFGGGTKLTVLGQPKAAPSVTLFPPSSEELQANKATLVCLISDFYPGAVTVAWKADSSPVKAGVETTTPSKQSNNKYAASSYLSLTPEQWKSHRSYSCQVTHEGSTVEKTVAPTECS
binding result (human MerTK-His protein [6]): binds

B6: tA3-20.4 (antibody, human IgG1, lambda, L234A L235A)
heavy: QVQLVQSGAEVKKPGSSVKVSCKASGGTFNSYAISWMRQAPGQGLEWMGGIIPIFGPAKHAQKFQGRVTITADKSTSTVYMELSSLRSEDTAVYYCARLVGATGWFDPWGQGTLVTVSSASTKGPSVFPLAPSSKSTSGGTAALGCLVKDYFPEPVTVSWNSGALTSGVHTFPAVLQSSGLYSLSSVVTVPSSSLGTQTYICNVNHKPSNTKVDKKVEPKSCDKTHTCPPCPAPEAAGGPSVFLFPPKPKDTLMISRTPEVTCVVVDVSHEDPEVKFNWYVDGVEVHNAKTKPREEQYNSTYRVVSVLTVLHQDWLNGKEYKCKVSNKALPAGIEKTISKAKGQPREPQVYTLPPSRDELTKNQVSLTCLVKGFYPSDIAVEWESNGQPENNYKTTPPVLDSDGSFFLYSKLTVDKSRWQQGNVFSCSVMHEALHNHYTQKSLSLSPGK
light: B5 light with N19T
binding result (human MerTK-His protein [6]): binds

B7: tA3-20.5 (antibody, human IgG1, lambda, L234A L235A)
heavy: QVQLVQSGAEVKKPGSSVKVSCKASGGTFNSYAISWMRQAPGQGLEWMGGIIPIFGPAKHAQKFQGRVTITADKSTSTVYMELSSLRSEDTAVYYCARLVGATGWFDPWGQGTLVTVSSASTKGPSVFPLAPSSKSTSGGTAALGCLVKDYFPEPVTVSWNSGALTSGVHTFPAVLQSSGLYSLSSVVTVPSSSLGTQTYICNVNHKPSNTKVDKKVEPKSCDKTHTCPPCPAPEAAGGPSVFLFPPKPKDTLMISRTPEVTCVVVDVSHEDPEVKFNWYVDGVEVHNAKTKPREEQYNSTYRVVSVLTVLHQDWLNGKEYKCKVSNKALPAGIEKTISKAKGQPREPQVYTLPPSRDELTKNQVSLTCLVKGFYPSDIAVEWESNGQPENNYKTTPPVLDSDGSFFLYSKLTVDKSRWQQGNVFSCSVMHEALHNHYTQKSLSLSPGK
light: B5 light with N19S
binding result (human MerTK-His protein [6]): binds
